Experiment [1] deals with T1, FcγRIa (human, UniProt P12314 16-292).
T1 construct: extracellular domain; Soluble extracellular domain with C-terminal His tag, expressed in FreeStyle293 cells; analyte in Biacore; also called FcgRI; CD64; not shown: His tag attached to the C terminus
Kind of experiment: SPR (Biacore), antibody captured on antigen-peptide chip, FcγRIa as analyte; binding activity relative to control GpH7-B3/GpL16-k0 (HoCon Ab) x100. On the procedure:
(§1) Analysis of interaction between objective antibody and the FcγR was carried out using Biacore T100 (GE Healthcare). HBS-EP+ (GE Healthcare) was used as the running buffer, and the measurement temperature was set to 25° C. Chips produced by immobilizing the antigen peptide by the amine coupling method to a Series S Sencor Chip CM5 (GE Healthcare), or alternatively, chips produced by allowing preliminarily biotinylated antigen peptides to interact with and immobilize onto a Series S Sensor Chip SA (certified) (GE Healthcare) were used. Antibodies of interest were captured onto an antigen peptide-immobilized chip, and allowed to interact to each FcγR diluted with running buffer. To regenerate and repeatedly use the chip, the antibodies captured on the chip were washed off by reacting 10 mM glycine-HCl, pH 1.5.
(In general: Surface plasmon resonance follows binding to a sensor surface in real time, without labels.)

Experiment [2] addresses T1, FcγRIa. Kind of experiment: SPR (Biacore), antibody captured on antigen-peptide chip, FcγRIa as analyte; binding activity relative to control GpH7-A5/GpH7-B3/GpL16-k0 (HeCon Ab) x100. As for the experimental part:
as §1

Experiment [3] concerns the target T2, FcγRIa extracellular domain with C-terminal His tag (human, UniProt P12314 16-292).
T2 construct: extracellular domain; expressed in FreeStyle293 cells; analyte in Biacore; also called FcgRI; 1a
Briefly: SPR (Biacore), captured antibody, FcγR as analyte; relative binding.

In experiment [4] the target is T3, FcγRIIb extracellular domain with C-terminal His tag (human, UniProt P31994 43-217).
T3 construct: extracellular domain; expressed in FreeStyle293 cells; analyte in Biacore; also called FcgRIIb; 2b
T3 sequence (looked up): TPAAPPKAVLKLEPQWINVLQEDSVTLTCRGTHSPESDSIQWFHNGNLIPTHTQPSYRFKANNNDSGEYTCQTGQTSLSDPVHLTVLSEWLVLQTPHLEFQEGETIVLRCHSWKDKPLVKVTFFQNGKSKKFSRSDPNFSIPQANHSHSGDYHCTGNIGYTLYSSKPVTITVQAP
The description is as above.

Experiment [5] deals with T2, FcγRIa extracellular domain with …. Briefly: SPR (Biacore); He/Con_1a divided by He/Con_2b (FcγRIIb as reference).

Here are results for 21 molecules from patent publication US20150344570A1 (published 2015).

T1 sequence (P12314 16-292): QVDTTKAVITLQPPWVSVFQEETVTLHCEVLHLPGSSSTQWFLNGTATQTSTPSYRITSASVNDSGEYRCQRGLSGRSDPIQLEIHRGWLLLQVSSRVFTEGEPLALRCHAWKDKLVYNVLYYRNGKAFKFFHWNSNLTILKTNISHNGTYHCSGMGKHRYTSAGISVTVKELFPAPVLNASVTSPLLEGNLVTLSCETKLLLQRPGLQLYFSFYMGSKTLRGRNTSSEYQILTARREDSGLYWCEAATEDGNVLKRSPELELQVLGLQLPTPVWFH
T2 sequence (P12314 16-292): as above

B1: GpH7-B3 variant Y300_19Q/GpL16-k0 (homodimerized antibody, Ho Ab) (antibody, human IgG1, kappa)
heavy: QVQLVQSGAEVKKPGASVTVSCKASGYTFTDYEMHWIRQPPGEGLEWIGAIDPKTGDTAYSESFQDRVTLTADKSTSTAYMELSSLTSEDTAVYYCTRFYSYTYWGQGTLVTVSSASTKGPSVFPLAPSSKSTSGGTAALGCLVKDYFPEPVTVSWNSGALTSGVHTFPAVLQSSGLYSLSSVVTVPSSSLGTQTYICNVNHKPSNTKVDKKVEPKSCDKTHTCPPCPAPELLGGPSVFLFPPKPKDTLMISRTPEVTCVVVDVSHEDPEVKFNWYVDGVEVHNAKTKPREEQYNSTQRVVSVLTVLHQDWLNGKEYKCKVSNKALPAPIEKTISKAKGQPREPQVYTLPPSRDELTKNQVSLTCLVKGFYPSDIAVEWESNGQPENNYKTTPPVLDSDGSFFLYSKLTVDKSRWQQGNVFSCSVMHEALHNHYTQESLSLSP
light: DIVMTQSPLSLPVTPGEPASISCQASESLVHSNRNTYLHWYLQKPGQSPQLLIYKVSNRFSGVPDRFSGSGSGTDFTLKISRVEAEDVGVYYCSQNTHVPPTFGQGTKVEIERTVAAPSVFIFPPSDEQLKSGTASVVCLLNNFYPREAKVQWKVDNALQSGNSQESVTEQDSKDSTYSLSSTLTLSKADYEKHKVYACEVTHQGLSSPVTKSFNRGEC
notes: Anti-glypican-3 IgG1 (G1d with K439E); same alteration in both H chains
B1: in the experiment with FcγRIa [1], the Ho/Con_1a was 110 % of control (=100).

B2: GpH7-A5/GpH7-B3 variant Y300_11K/GpL16-k0 (heterodimerized antibody, He Ab) (antibody, human IgG1, kappa)
heavy 1: not shown
heavy 2: not shown
light: B1 light
notes: Anti-glypican-3 IgG1; alteration only in the GpH7-B3 (K439E) chain; other H chain is GpH7-A5 (D356K/H435R)
B2: the He/Con_1a with FcγRIa [2] was 107 % of control (=100).

B3: GpH7-A5/GpH7-B3 variant Y300_10E/GpL16-k0 (heterodimerized antibody, He Ab) (antibody, human IgG1, kappa)
heavy 1: not shown
heavy 2: not shown
light: B1 light
notes: as for B2
For the molecule B3, the He/Con_1a in the experiment with FcγRIa [2] was 114 % of control (=100).

B4: GpH7-A5/GpH7-B3 variant Y296_13S/GpL16-k0 (heterodimerized antibody, He Ab) (antibody, human IgG1, kappa)
heavy 1: not shown
heavy 2: not shown
light: B1 light
notes: as for B2
Turning to B4, the He/Con_1a with FcγRIa [2] is 105 % of control (=100).

B5: GpH7-A5/GpH7-B3 variant D265_12R/GpL16-k0 (antibody, human IgG1, kappa)
heavy 1: not shown
heavy 2: not shown
light: B1 light
notes: He Ab; IgG1, mutation in one H chain
With B5, in experiment [3], the He/Con_1a is 44.3 % of HeCon Ab (GpH7-A5/GpH7-B3/GpL16-k0 = 100). In addition, in experiment [4], the He/Con_2b is 15 % of HeCon Ab (GpH7-A5/GpH7-B3/GpL16-k0 = 100). In addition, the “He_1a/2b (Ia/IIb)” value in experiment [5] was 2.96 ratio.

B6: GpH7-A5/GpH7-B3 variant D265_13S/GpL16-k0 (antibody, human IgG1, kappa)
heavy 1: not shown
heavy 2: not shown
light: B1 light
notes: as for B5
As to B6, in experiment [3], the He/Con_1a was 68.7 % of HeCon Ab (GpH7-A5/GpH7-B3/GpL16-k0 = 100). The He/Con_2b in experiment [4] was 11.3 % of HeCon Ab (GpH7-A5/GpH7-B3/GpL16-k0 = 100). Moreover, in experiment [5], the “He_1a/2b (Ia/IIb)” value worked out at 6.07 ratio.

B7: GpH7-A5/GpH7-B3 variant Y300_20W/GpL16-k0 (heterodimerized antibody, He Ab) (antibody, human IgG1, kappa)
heavy 1: not shown
heavy 2: not shown
light: B1 light
notes: as for B2
As for B7, the He/Con_1a with FcγRIa [2] is 112 % of control (=100).

B8: GpH7-A5/GpH7-B3 variant Y296_18N/GpL16-k0 (heterodimerized antibody, He Ab) (antibody, human IgG1, kappa)
heavy 1: not shown
heavy 2: not shown
light: B1 light
notes: as for B2
As to B8, in the experiment with FcγRIa [2], the He/Con_1a is 106 % of control (=100).

B9: GpH7-A5/GpH7-B3 variant Y296_16H/GpL16-k0 (heterodimerized antibody, He Ab) (antibody, human IgG1, kappa)
heavy 1: not shown
heavy 2: not shown
light: B1 light
notes: as for B2
For B9, the He/Con_1a in the experiment with FcγRIa [2] was 106 % of control (=100).

B10: GpH7-A5/GpH7-B3 variant D265_02A/GpL16-k0 (antibody, human IgG1, kappa)
heavy 1: not shown
heavy 2: not shown
light: B1 light
notes: as for B5
B10: the He/Con_1a in experiment [3] is 84.5 % of HeCon Ab (GpH7-A5/GpH7-B3/GpL16-k0 = 100). The He/Con_2b in experiment [4] is 19.9 % of HeCon Ab (GpH7-A5/GpH7-B3/GpL16-k0 = 100). Also, in experiment [5], the “He_1a/2b (Ia/IIb)” value stood at 4.25 ratio.

B11: GpH7-A5/GpH7-B3 variant Y300_03V/GpL16-k0 (heterodimerized antibody, He Ab) (antibody, human IgG1, kappa)
heavy 1: not shown
heavy 2: not shown
light: B1 light
notes: as for B2
B11: the He/Con_1a with FcγRIa [2] is 117 % of control (=100).

B12: GpH7-A5/GpH7-B3 variant D265_08L/GpL16-k0 (antibody, human IgG1, kappa)
heavy 1: not shown
heavy 2: not shown
light: B1 light
notes: as for B5
Turning to B12, the He/Con_1a in experiment [3] was 56.8 % of HeCon Ab (GpH7-A5/GpH7-B3/GpL16-k0 = 100). Further, in experiment [4], the He/Con_2b was 4.6 % of HeCon Ab (GpH7-A5/GpH7-B3/GpL16-k0 = 100). Moreover, in experiment [5], the “He_1a/2b (Ia/IIb)” value was 12.4 ratio.

B13: GpH7-A5/GpH7-B3 variant Y296_20W/GpL16-k0 (heterodimerized antibody, He Ab) (antibody, human IgG1, kappa)
heavy 1: not shown
heavy 2: not shown
light: B1 light
notes: as for B2
B13: in the experiment with FcγRIa [2], the He/Con_1a was 111 % of control (=100).

B14: GpH7-A5/GpH7-B3 variant Y300_08L/GpL16-k0 (heterodimerized antibody, He Ab) (antibody, human IgG1, kappa)
heavy 1: not shown
heavy 2: not shown
light: B1 light
notes: as for B2
Consider B14, for which the He/Con_1a in the experiment with FcγRIa [2] is 113 % of control (=100).

B15: GpH7-A5/GpH7-B3 variant Y300_09D/GpL16-k0 (heterodimerized antibody, He Ab) (antibody, human IgG1, kappa)
heavy 1: not shown
heavy 2: not shown
light: B1 light
notes: as for B2
For B15, in the experiment with FcγRIa [2], the He/Con_1a was 112 % of control (=100).

B16: GpH7-A5/GpH7-B3 variant Y300_06M/GpL16-k0 (heterodimerized antibody, He Ab) (antibody, human IgG1, kappa)
heavy 1: not shown
heavy 2: not shown
light: B1 light
notes: as for B2
Turning to B16, in the experiment with FcγRIa [2], the He/Con_1a is 112 % of control (=100).

B17: GpH7-A5/GpH7-B3 variant Y300_02A/GpL16-k0 (heterodimerized antibody, He Ab) (antibody, human IgG1, kappa)
heavy 1: not shown
heavy 2: not shown
light: B1 light
notes: as for B2
For the molecule B17, in the experiment with FcγRIa [2], the He/Con_1a is 112 % of control (=100).

B18: GpH7-A5/GpH7-B3 variant T335_19Q/GpL16-k0 (heterodimerized antibody, He Ab) (antibody, human IgG1, kappa)
heavy 1: not shown
heavy 2: not shown
light: B1 light
notes: as for B2
As to B18, in the experiment with FcγRIa [2], the He/Con_1a was 105 % of control (=100).

B19: GpH7-A5/GpH7-B3 variant D265_06M/GpL16-k0 (antibody, human IgG1, kappa)
heavy 1: not shown
heavy 2: not shown
light: B1 light
notes: as for B5
Take B19: the He/Con_1a in experiment [3] was 75.7 % of HeCon Ab (GpH7-A5/GpH7-B3/GpL16-k0 = 100). In addition, the He/Con_2b in experiment [4] was 10 % of HeCon Ab (GpH7-A5/GpH7-B3/GpL16-k0 = 100). In experiment [5], the “He_1a/2b (Ia/IIb)” value stood at 7.57 ratio.

B20: GpH7-A5/GpH7-B3 variant Y296_19Q/GpL16-k0 (heterodimerized antibody, He Ab) (antibody, human IgG1, kappa)
heavy 1: not shown
heavy 2: not shown
light: B1 light
notes: as for B2
Take B20: the He/Con_1a in the experiment with FcγRIa [2] is 112 % of control (=100).

B21: GpH7-B3 variant Y300_20W/GpL16-k0 (homodimerized antibody, Ho Ab) (antibody, human IgG1, kappa)
heavy: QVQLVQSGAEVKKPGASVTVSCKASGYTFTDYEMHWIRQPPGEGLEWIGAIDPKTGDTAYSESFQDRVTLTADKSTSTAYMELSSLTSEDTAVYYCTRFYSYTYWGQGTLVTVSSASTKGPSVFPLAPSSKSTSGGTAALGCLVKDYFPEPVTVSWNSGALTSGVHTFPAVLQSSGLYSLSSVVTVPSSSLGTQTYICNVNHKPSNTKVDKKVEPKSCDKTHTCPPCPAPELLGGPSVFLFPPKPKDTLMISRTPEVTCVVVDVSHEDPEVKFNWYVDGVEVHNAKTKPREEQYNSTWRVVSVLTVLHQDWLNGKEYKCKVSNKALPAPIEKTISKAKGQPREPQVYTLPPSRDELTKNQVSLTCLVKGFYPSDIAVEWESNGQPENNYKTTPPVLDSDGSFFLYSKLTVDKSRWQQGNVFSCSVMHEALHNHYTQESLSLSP
light: B1 light
notes: as for B1
In the case of B21, in the experiment with FcγRIa [1], the Ho/Con_1a was 110 % of control (=100).
